Assay results as given in patent US20220323598A1 (NATIONAL UNIVERSITY CORPORATION TOKAI NATIONAL HIGHER …, published 2022).

Assays:
[1] = biological target: T1, human ROR1 protein (GenBank accession No. NP_005003.2) (human, UniProt Q01973 30-937); assay: flow cytometry on NCI-H358 cells, relative affinity
T1 construct: whole, on cells; also called hROR1; endogenous human ROR1
Protocol: To inspect response of the antibodies obtained as described above to an endogenous human ROR1, response to an ROR1 high expressing cell NCI-H358 (ATCC accession No. CRL-5807) line was observed as below. The antibodies were purified from the culture supernatant of each hybridoma clone by a general affinity purification method using Protein A-Sepharose, respectively. The obtained purified antibodies were analyzed for the average fluorescence intensity of flow cytometry under the same condition (the same number of NCI-H358 (1×10⁵), the same concentration of respective purified antibodies, and the same concentration of secondary (detected) antibodies). Further, data was acquired also for the average fluorescence intensity that depends on the antibody concentration, the detection limit at a low concentration was analyzed, and thereby relative affinity was evaluated. FIG. 2 to FIG. 4 illustrate the results in a form of graphs. The horizontal axis of each graph represents the used antibody concentration (ng/mL), and the vertical axis represents the average fluorescence intensity (MFI) in flow cytometry. FIG. 2A is a diagram illustrating the response of anti-human ROR1 antibodies to ROR1 expressing cells of acquired monoclonal antibodies (2 AM series and 2AC series). […]

[2] = biological target: T1, human ROR1 protein (GenBank accession …); assay: flow cytometry, Alexa Fluor 488 labeled antibody at 1 µg/ml on ROR1 high (NCI-H1975, PC-9) and ROR1 low (A427, NCI-H460) expressing cell lines
From the text: To inspect response of antibodies obtained as described above to an endogenous human ROR1, the response to the ROR1 high expressing cell line (NCI-H1975, PC-9) and the ROR1 low expressing cell line (A427, NCI-H460) was observed as follows. Note that NCI-H1975 (ATCC accession No. CRL-5908), A427 (ATCC accession No. HTB-53), and NCI-H460 (ATCC accession No. HTB-177) were purchased from American Type Culture Collection. The PC-9 cell line (RCB 4455) was obtained from RIKEN cell bank. Various cell lines were seeded on 6-well dishes to have 2×10⁵/well, cultured at 37 degrees Celsius for 24 hours, and collected after PBS washing. After chimerized antibodies labeled by using Alexa Fluor (registered trademark) 488 Antibody Labeling Kit (Thermo Fisher Scientific; A20181) were diluted to 1 μg/ml and reacted on ice for one hour, the resultant was washed with a PBS, and the reaction intensity was analyzed by flow cytometry. […] FIG. 6 illustrates graphs indicating the response of chimerized antibodies to the ROR1 high expressing cell line and the ROR1 low expressing cell line.

T1 sequence (Q01973 30-937): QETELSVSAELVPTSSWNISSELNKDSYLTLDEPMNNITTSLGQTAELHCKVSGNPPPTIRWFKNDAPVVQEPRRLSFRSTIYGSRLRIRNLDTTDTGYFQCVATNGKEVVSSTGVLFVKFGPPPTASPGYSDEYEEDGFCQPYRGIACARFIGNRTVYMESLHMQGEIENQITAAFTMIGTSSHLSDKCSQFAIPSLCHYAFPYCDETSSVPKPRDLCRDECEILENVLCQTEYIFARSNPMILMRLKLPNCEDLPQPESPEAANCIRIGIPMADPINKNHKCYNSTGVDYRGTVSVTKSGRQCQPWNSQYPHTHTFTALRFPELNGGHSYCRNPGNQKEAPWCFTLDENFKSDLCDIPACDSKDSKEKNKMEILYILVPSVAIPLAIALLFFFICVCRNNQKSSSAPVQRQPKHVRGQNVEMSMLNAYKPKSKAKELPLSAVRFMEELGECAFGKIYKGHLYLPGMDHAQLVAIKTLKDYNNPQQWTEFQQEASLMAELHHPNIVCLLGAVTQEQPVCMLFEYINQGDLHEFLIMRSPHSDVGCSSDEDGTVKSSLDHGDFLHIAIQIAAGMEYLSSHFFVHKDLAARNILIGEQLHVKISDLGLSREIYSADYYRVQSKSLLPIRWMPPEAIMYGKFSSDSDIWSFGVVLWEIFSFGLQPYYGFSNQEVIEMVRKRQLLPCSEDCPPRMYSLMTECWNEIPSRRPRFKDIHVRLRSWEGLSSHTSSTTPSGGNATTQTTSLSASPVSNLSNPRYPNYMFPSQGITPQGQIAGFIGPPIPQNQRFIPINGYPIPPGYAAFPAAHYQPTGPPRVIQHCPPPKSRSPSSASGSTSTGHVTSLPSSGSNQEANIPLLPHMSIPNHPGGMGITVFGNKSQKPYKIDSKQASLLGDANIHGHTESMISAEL

binding result [1]	binding result [2]	Binder
	binds	chimeric antibody M1 (antibody, human IgG1, V domains shown, Mouse VH and VL of 2DC_5-2 in a vector carrying the human IgG1 constant region; also called chimerized antibody obtained from clone 2DC_5-2) VH: EVKLVESGGGLVKPGGSLKLSCAASGFTFSSYAMSWVRQTPEKRLEWVAAINTKGGSTYYPDTVKDRFTISRDNAKNILYLQMSSLRSEDTALYYCARHEPVYDYAMDYWGQGTSVTVSS VL: DIKMTQSPSSMYASLGERVTITCKASQDINSYLSWFQQKPGKSPKTLIYRANRLVDGVPSRFSGSGSGQDYSLTISSLECGDMGIYYCLQYDEFPYTFGGGTKLEIK
	binds	chimeric antibody M3 (antibody, human IgG1, V domains shown, Mouse VH and VL of 6AM_120-2 in a vector carrying the human IgG1 constant region; also called chimerized antibody obtained from clone 6 AM_120-2) VH: EIQLQQSGAELVKPGASVKISCKASGYSFTGYNMNWVKQSHGKSLEWIGNINPYYGNTSYNQKFKGKATLTVDKSSSTAYMQLNSLTSEDSAVYYCAREGFEYFDYWGQGTTLTVSS VL: DIQMTQSPASLSASVGETVTITCRASENIYSYLAWYQQKQGKSPQLLVYNVKTLAEGVPSRFSGSGSGTQFSLKINSLQPEDFGSYYCQHHYGIPYTFGSGTKLEIK

Continued, binder first:

Binder	binding result [1]	binding result [2]
2DC_5-2 (antibody, mouse IgG1, V domains shown, VH was cloned with a mouse IgG1 CH1 primer and VL with a kappa constant region primer; also called clone 2DC_5-2) VH: EVKLVESGGGLVKPGGSLKLSCAASGFTFSSYAMSWVRQTPEKRLEWVAAINTKGGSTYYPDTVKDRFTISRDNAKNILYLQMSSLRSEDTALYYCARHEPVYDYAMDYWGQGTSVTVSS VL: DIKMTQSPSSMYASLGERVTITCKASQDINSYLSWFQQKPGKSPKTLIYRANRLVDGVPSRFSGSGSGQDYSLTISSLECGDMGIYYCLQYDEFPYTFGGGTKLEIK	binds	
6AM_120-2 (antibody, mouse IgG1, V domains shown, VH was cloned with a mouse IgG1 CH1 primer and VL with a kappa constant region primer) VH: EIQLQQSGAELVKPGASVKISCKASGYSFTGYNMNWVKQSHGKSLEWIGNINPYYGNTSYNQKFKGKATLTVDKSSSTAYMQLNSLTSEDSAVYYCAREGFEYFDYWGQGTTLTVSS VL: DIQMTQSPASLSASVGETVTITCRASENIYSYLAWYQQKQGKSPQLLVYNVKTLAEGVPSRFSGSGSGTQFSLKINSLQPEDFGSYYCQHHYGIPYTFGSGTKLEIK	binds	
